The record followed here is patent publication US20220003782A1 (METAFORA BIOSYSTEMS, published 2022).

Some results are limits rather than exact numbers.

The target in assay [1] is CAT1/SLC7A1 (UniProt P30825). Put plainly: flow cytometry, HEK293T cells with control siRNA siLUC (endogenous receptor), saturating ligand, Alexa488 anti-mouse IgG1. In general terms: A flow cytometer gives signals particle by particle.
Assay [2] concerns the target CAT1/SLC7A1 (UniProt P30825). Nature of the assay: flow cytometry, HEK293T cells with siSMVT A (endogenous receptor), saturating ligand, Alexa488 anti-mouse IgG1.
Assay [3] deals with GLUT1/SLC2A1 (glucose transporter type 1) (UniProt P11166). Put plainly: flow cytometry, HEK293T cells with control siRNA siLUC (endogenous receptor), saturating ligand, Alexa488 anti-mouse IgG1.
For assay [4] the target is unchanged. Nature of the assay: flow cytometry, HEK293T cells with siSMVT A (endogenous receptor), saturating ligand, Alexa488 anti-mouse IgG1.
The target of assay [5] is XPR1/SLC53A1. Put plainly: flow cytometry, HEK293T cells with control siRNA siLUC (endogenous receptor), saturating ligand, Alexa488 anti-mouse IgG1.
For assay [6], the target named is XPR1/SLC53A1. Put plainly: flow cytometry, HEK293T cells with siSMVT A (endogenous receptor), saturating ligand, Alexa488 anti-mouse IgG1.
Assay [7] deals with T1, sodium-dependent multivitamin transporter / solute carrier family 5 member 6 (SMVT/SLC5A6) (human, UniProt Q9Y289 1-635).
T1 construct: also called SLC5A6/SMVT
T1 sequence: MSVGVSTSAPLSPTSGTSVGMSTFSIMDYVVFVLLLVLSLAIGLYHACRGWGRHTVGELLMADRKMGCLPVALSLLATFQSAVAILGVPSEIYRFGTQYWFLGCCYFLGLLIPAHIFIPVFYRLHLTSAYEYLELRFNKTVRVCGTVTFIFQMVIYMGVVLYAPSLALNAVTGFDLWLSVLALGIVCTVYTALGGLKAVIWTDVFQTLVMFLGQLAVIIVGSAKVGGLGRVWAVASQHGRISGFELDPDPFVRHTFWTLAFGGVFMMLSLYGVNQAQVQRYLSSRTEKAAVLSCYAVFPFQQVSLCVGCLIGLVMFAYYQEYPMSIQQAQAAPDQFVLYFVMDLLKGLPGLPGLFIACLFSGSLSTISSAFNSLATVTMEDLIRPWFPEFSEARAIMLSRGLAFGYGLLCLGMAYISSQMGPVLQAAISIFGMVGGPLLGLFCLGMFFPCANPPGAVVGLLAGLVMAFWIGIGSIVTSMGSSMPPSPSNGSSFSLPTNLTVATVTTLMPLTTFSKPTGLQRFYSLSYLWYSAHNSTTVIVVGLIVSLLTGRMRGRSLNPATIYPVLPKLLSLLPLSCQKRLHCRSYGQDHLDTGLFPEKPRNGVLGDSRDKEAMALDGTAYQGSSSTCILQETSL
Put plainly: flow cytometry on HEK293T cells, siSMVT A against siLUC control.

Sequence of CAT1/SLC7A1 (P30825 whole entry): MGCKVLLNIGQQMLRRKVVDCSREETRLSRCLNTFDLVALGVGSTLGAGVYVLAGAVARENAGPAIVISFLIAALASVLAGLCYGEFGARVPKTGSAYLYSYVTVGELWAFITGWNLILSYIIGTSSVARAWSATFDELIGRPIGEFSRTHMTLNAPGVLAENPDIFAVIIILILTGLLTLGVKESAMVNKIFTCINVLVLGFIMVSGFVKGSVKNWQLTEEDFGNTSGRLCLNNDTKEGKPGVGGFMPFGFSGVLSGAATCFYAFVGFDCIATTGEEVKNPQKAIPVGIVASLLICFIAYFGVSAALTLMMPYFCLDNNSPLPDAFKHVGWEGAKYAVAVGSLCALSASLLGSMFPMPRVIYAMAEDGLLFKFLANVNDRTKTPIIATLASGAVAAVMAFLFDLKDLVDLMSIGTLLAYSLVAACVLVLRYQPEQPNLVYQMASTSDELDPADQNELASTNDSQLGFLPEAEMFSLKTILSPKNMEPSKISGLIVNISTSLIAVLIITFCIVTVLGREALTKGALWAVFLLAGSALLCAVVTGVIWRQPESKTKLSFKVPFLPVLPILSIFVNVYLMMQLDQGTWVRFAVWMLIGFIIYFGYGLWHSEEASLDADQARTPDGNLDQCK
Sequence of GLUT1/SLC2A1 (glucose transporter type 1) (P11166 whole entry): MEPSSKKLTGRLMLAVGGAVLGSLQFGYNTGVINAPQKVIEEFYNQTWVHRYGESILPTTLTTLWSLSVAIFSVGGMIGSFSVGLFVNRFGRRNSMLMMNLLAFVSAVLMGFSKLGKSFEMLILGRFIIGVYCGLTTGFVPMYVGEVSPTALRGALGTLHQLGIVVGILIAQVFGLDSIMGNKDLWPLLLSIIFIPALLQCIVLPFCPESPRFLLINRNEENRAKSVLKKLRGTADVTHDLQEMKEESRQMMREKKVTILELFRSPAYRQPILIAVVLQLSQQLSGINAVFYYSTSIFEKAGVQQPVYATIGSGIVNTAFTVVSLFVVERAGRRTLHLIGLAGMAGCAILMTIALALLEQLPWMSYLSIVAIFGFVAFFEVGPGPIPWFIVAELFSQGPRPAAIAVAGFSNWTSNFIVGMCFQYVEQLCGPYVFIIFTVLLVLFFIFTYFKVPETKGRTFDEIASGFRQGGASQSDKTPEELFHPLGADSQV
Sequence of XPR1/SLC53A1 (Q9UH99 whole entry): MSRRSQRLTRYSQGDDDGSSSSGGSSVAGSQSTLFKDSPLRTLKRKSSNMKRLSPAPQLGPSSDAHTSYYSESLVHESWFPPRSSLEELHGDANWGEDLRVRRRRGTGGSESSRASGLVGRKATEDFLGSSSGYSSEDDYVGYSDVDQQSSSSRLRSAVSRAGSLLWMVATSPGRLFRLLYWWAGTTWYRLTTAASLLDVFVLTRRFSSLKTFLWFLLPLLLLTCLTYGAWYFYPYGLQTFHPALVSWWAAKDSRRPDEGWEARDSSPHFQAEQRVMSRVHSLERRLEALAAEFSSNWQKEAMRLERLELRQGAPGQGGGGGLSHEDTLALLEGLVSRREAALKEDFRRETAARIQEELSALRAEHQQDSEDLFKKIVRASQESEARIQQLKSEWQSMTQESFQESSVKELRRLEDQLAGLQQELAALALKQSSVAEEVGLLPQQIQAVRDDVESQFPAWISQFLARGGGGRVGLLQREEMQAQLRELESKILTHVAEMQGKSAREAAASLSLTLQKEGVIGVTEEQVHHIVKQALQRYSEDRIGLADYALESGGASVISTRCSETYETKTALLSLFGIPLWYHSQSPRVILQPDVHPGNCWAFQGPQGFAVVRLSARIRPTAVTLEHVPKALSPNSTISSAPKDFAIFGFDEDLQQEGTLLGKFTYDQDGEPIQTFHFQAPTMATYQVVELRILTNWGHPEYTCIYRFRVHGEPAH

“RBD derived from the bovine leukemia virus (BLV), fusion protein with mFC (Fc fusion)”: the relative specific binding (delta of the geometric mean of the fluorescence intensity) in assay [1] and in assay [2] was 110 each time.
As for “human T-cell leukemia virus type 2 (HTLV2)-RBD, fusion protein with mFC (Fc fusion)”, the values for the relative specific binding (delta of the geometric mean of the fluorescence intensity) in assay [3] and in assay [4] were 18.3 and 21.3, respectively.
As for “RBD from a xenotropic murine retrovirus (XRBD), fusion protein with mFC (Fc fusion)”, the figures for the relative specific binding (delta of the geometric mean of the fluorescence intensity) in assay [5] and in assay [6] were 12.6 and 14.6, respectively.

B1: PERV-B RBD ligand fused to a mouse Fc fragment (SEQ ID NO: 13) (Fc fusion)
chain: KRLIDSSNPHRPLSLTWLIIDPDTGVTVNSTRGVAPRGTWWPELHFCLRLINPAVKSTPPNLVRSYGFYCCPGTEKEKYCGGSEESFCRRWSCVTSNDGDWKWPISLQDRVKFSFVNSGPGKYKVMKLYKDKSCSPSDLDYLKISFTEKGKQENIQKWINGMSWGIVFYKYGGGAGSTLTIRLRIEAGTEPPVAVGSVDVPRDCGCKPCICTVPEVSSVFIFPPKPKDVLTITLTPKVTCVVVDISKDDPEVQFSWFVDDVEVHTAQTQPREEQFNSTFRSVSELPIMHQDWLNGKEFKCRVNSAAFPAPIEKTISKTKGRPKAPQVYTIPPPKEQMAKDKVSLTCMITDFFPEDITVEWQWNGQPAENYKNTQPIMDTDGSYFVYSKLNVQKSNWEAGNTFTCSVLHEGLHNHHTEKSLSHSPGK
Regarding B1, in assay [7], the “fold drop of specific binding with anti-SMVT siRNA against siLUC” value is > 2 fold.
